# Where two headings read alike, the source gives them in different places.
# T1: CD25-His recombinant protein (human, UniProt P01589 22-240)
# T1 chain: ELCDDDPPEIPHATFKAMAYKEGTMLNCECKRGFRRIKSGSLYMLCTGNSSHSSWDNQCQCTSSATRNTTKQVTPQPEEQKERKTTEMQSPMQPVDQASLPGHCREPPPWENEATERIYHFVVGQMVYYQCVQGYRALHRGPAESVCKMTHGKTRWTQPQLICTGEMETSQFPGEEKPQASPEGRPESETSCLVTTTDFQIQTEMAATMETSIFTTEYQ
# T2: CD25 on the CHO-CD25-overexpressing cell line (human, UniProt P01589 22-272)
# T2 chain: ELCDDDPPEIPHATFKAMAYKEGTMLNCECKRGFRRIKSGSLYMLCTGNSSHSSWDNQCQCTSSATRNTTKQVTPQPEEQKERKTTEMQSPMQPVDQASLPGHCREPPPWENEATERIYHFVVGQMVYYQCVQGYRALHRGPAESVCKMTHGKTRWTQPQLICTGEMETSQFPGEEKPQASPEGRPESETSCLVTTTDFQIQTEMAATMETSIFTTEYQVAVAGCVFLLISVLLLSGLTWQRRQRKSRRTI
# T3: CD25-His recombinant protein (human, UniProt P01589 22-240, limits assumed)
# T3 construct: Recombinant antigen made by the applicant; also called CD25-His antigen; CD25 antigen; not shown: His tag
# T3 sequence (looked up): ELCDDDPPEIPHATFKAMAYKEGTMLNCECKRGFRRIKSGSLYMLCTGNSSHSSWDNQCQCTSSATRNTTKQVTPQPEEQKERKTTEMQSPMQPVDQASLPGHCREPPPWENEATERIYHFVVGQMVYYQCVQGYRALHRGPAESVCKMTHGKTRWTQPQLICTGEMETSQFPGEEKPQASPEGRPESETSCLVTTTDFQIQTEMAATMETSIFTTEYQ
# T4: CD25 on the CHO-CD25-overexpressing cell line (human, UniProt P01589 22-272)
# T4 sequence (looked up): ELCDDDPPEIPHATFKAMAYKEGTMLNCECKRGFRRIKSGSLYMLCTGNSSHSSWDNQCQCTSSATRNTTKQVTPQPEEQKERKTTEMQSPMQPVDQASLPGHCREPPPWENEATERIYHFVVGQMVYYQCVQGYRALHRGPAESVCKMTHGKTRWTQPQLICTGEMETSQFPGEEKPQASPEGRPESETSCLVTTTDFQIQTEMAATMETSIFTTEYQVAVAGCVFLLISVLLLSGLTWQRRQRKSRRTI
# Legend:
# [1] = molecular target: T1, CD25-His recombinant protein; test: ELISA
# [2] = molecular target: T2, CD25 on the CHO-CD25-overexpressing …; test: FACS
# [3] = molecular target: T3, CD25-His recombinant protein; test: ELISA on CD25 antigen, transfection supernatant 5 µL
# Method: The CD25-His protein was coated on a 96-well microplate. After the candidate antibodies were transiently transfected into 293F cells for 48 hours, the supernatant was collected and ELISA detection was performed.
# [4] = molecular target: T2, CD25 on the CHO-CD25-overexpressing …; test: FACS
# [5] = molecular target: T1, CD25-His recombinant protein; test: BLI
# [6] = molecular target: T4, CD25 on the CHO-CD25-overexpressing …; test: cell-based or functional assay
# [7] = molecular target: T3, CD25-His recombinant protein; test: ELISA on human CD25 antigen, antibody 0.016 µg/ml
# [8] = molecular target: T3, CD25-His recombinant protein; test: ELISA on human CD25 antigen, antibody 10 µg/ml
Binder,EC50 [1],EC50 [2],also measured
B04 (VHH) VHH: QVQLVESGGGLVQPGGSLRLSCATSGFTLDYYAIGWFRQAPGKEREGVSCISSSDGTTAYADSVKGRFTISTDNARNTVYLQMNSLKPEDTAVYYCAADLGYYCADNVRYAGSLYDYWGQGTQVTVSS,0.164 µg/mL,7.02 µg/mL,–
"B10 (VHH, Tested as transfection supernatant) VHH: EVQLVESGGGLVQPGGSLRLSCAVFGVTLDSYAIGWFRQAPGKEREGVSCISTSDGRTWETDAVLGRFTISRDNAKNTVYLQMNDLKPEDTAVYYCGADGRDWCSAHVYSRYEYDYSGQGTQVTVSS",–,–,ELISA OD [3]: 4.38
D04 (VHH) VHH: QVQLVESGGGLVQPGGSLRLSCAASGFTFSSSAVSWARLTPGKRLEWVSAIASDGSTYYADSMQGRFTISRDNAKNTVYLQMNSLKPEDTAVYYCAIPRDGLVPVFGIDYWGQGTQVTVSS,0.0281 µg/mL,–,–
A07-HM5 (VHH) VHH: EVQLVESGGGLVQPGGSLRLSCAVSGFTLDYYAIGWFRQAPGKGLEGVSCISGSDGRTAYADSVKGRFTISKDNAKNTVYLQMNSLRAEDTAVYYCAADPGYYCAGEVRYAGSLYDYWGQGTLVTVSS,–,–,EC50 [4]: 0.632 µg/mL; Kd [5]: 9.62 nM; ADCC EC50 [6]: 0.0074 µg/mL
A07-HM6 (VHH) VHH: EVQLLESGGGLVQPGGSLRLSCAVSGFTLDYYAIGWFRQAPGKGLEGVSCISGSDGRTAYGDSVKGRFTISKDNAKNTVYLQMNSLRAEDTAVYYCAADPGYYCAGEVRYAGSLYDYWGQGTLVTVSS,–,–,EC50 [4]: 0.772 µg/mL; Kd [5]: 14.6 nM; ADCC EC50 [6]: 0.0047 µg/mL
D01 (VHH) VHH: QVQLVESGGGLAQPGGSLRLSCAASGFTFSNFAVSWARQVAGEGFEWVSGVYSDGDTYYADSVKDRFIISRDNAKNTLYLQMNSLKPEDTALYYCGAARGRLCSSIMTCDYWGQGTQVTVSS,0.0261 µg/mL,1.27 µg/mL,–
A05 (VHH) VHH: QVQLVESGGGLAQPGGSLRLSCAASGFTFSIYAMSWARQAPGKGLEWVSGIYSDSSYTYYADSVKGRFTISRDNAKNTLYLQMNSLKPEDTALYYCLKARGSGSYYPFDDYRGQGTQVTVSS,0.0177 µg/mL,1.59 µg/mL,–

# The next lines start with results.
EC50 [1],EC50 [2],Binder,also measured
0.00875 µg/mL,1.14 µg/mL,E08 (VHH) VHH: AVQLVESGGGLVQPGGSLRLSCAASGFTFSSYPMGWYRQAPGEECELVAGITSAGGSTNYADSVKGRFTISRDNAKNTVYLQMNSLKPEDTAVYYCNTDPRYYTDSRGPCSWGQGTQVTVSS,–
0.0559 µg/mL,2.8 µg/mL,"clone A07 (VHH, Recombinant antibody from a eukaryotic expression vector (293F); also called A-A7; A-A07-VHH) VHH: EVQLVESGGGLAQPGGSLRLSCAVSGFTLDYYAIGWFRQAPGKEREGVSCISGSDGRTAYTDSVKGRFTISKDNAKNTVYLQMNSLKPEDTAVYYCAADPGYYCAGEVRYAGSLYDYWGQGTQVTVSS",EC50 [4]: 0.399 µg/mL; Kd [5]: 6.67 nM; ELISA OD [7]: 0.2; ADCC EC50 [6]: 0.0186 µg/mL; ELISA OD [8]: 4.39
0.0128 µg/mL,2.8 µg/mL,A11 (VHH) VHH: DVQLVESGGGLVQPGGSLRLSCAASGFTFSSYAMSWYRQAPGKERELVAYITTSPGYTTYTDSVKGRFTISRDNAKNTVYLQMNSLKPDDTAVYYCNAWRGAPRGDYWGQGTQVTVSS,–
0.0193 µg/mL,1.88 µg/mL,G10 (VHH) VHH: DVQLVESGGGLAQPGGSLRLSCAASGFTFSNYAMNWLRQAPGKGLEWVSGIYSDSSGTYYADSVKGRFTISRDNAKNTLYLQMNSLKPEDTALYYCAKASNSGSYYPWDDDWGQGTQVTVSA,–
